± gives the half width of the 95% confidence interval.
Columns and labels:
[1] = folding stability dG unfold from trypsin proteolysis; higher = more stable
Method in brief: (§1)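 Designed mini-proteins (under 80 residues, no cysteine) in a PA-tagged cDNA display construct were digested with trypsin and chymotrypsin. Each protease was used at 11 concentrations (threefold dilutions) plus a no-protease condition, followed by sequencing. K50 was inferred by Bayesian fitting of sequencing counts, and unfolding free energy was derived against a sequence-predicted unfolded-state K50 and a shared folded-state K50, per protease or combined. Only designs with AlphaFold2 dimer inter-PAE above 15 were kept.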

[2] = folding stability dG unfold from chymotrypsin proteolysis; higher = more stable
Method in brief: as §1

[3] = folding stability dG unfold (combined trypsin and chymotrypsin); higher = more stable
Method in brief: as §1

With “SAGGSMLFLRVRIEVRPPTAEDLAEGKEVKEVEILVEFDSVEELKEALEKLPPNAKVEVELVELEESAGGSA [r2_25_TrROS_Hall]” the “folding stability dG unfold” value [1] was 2.36 ± 0.26 kcal/mol, the “folding stability dG unfold” value [2] was 2.9 ± 0.17 kcal/mol and the “folding stability dG unfold” value [3] was 2.83 ± 0.53 kcal/mol.

For “SAGMKVIEIDVPVSKIEEVKEELEAEAKEKGLNIKFEKLEKLPGNKYKMIVTVTDPTSNEKTIYNINILSAG [r5_41_JUSTAS]”, the “folding stability dG unfold” value [1] was 3.83 ± 0.27 kcal/mol, the “folding stability dG unfold” value [2] was 4.08 ± 0.051 kcal/mol and the “folding stability dG unfold” value [3] was 4.06 ± 0.12 kcal/mol.

For “SAGGSAGMPSVTPVTVQMKGSREEAEAVAEELIEELRAKDPSVKVEAVEFSELPDGTYRVTITVTNSAGGSA [r15_718_JUSTAS]”, the “folding stability dG unfold” value [1] was 3.71 ± 0.12 kcal/mol, the “folding stability dG unfold” value [2] was 3.36 ± 0.057 kcal/mol and the “folding stability dG unfold” value [3] was 3.49 ± 0.054 kcal/mol.

With “SAEKEYKVKVKVKIEIVELSEEELENLPPGALVIEVDGKLYLMRIEVEEVEVEEVPEEPEVDEETGELLSAG [r14_126_TrROS_Hall]” the “folding stability dG unfold” value [1] was 2.28 ± 0.16 kcal/mol, the “folding stability dG unfold” value [2] was 3.86 ± 0.1 kcal/mol and the “folding stability dG unfold” value [3] was 3.33 ± 0.17 kcal/mol.

With “SAGGSAGGSAGGDKNKPPKLKVKLKIEFPFTLPDGVKVRLEVEIDLDSDVIEPRAEVIDSSAGGSAGGSAGG [r7_213_TrMRF]” the “folding stability dG unfold” value [1] was 1.76 ± 0.035 kcal/mol, the “folding stability dG unfold” value [2] was 2.98 ± 0.086 kcal/mol and the “folding stability dG unfold” value [3] was 2.64 ± 0.081 kcal/mol.

In the case of “SAGGSAGGSAGGSWLVRIPGHPIIFKGPEDQAEGIARELQKNGKPIEIEIIDPDEMKKFSAGGSAGGSAGGS [r4_131_TrROS]”, the “folding stability dG unfold” value [1] is reported as 0.286 ± 0.12 kcal/mol, the “folding stability dG unfold” value [2] is reported as 1.12 ± 0.14 kcal/mol and the “folding stability dG unfold” value [3] is reported as 0.643 ± 0.23 kcal/mol.

For “SAGGSAGGSAGGMMRIRIKIYNVETGEWKEIEIEVPESVKEITLEIELPEGWRIVEIEVESAGGSAGGSAGG [r7_687_TrROS_Hall]”, the “folding stability dG unfold” value [1] was 5.39 ± 0.52 kcal/mol, the “folding stability dG unfold” value [2] was 5.22 ± 0.087 kcal/mol and the “folding stability dG unfold” value [3] was 5.32 ± 0.14 kcal/mol.

For “SAGGMKVTITVTDPEAFRAAVEALPEVPPEQVSTSPLPGNSYTATFPSEKAVELLKAAGVPITEIAASAGGS [r16_381_JUSTAS]”, the “folding stability dG unfold” value [1] was 0.377 ± 0.022 kcal/mol, the “folding stability dG unfold” value [2] was 0.63 ± 0.074 kcal/mol and the “folding stability dG unfold” value [3] was 0.568 ± 0.05 kcal/mol.

For “SAGGSAGGSAGKPEVEVETRLIKIDEEKGYYLRVTRVRVKNEDGSEFEFLSIEIIPKEDLSAGGSAGGSAGG [r11_51_TrROS_Hall]”, the “folding stability dG unfold” value [1] was 2.6 ± 0.098 kcal/mol, the “folding stability dG unfold” value [2] was 3.91 ± 0.052 kcal/mol and the “folding stability dG unfold” value [3] was 3.56 ± 0.071 kcal/mol.

In the case of “SAGDSVVIPFRLPPENLSPEELLEWIIDEVKEAAKAGLPHKVTIQVPYPGKPWYITIDPKNGEIEIVPSAGG [r19_204_TrROS]”, the “folding stability dG unfold” value [1] is reported as 1.04 ± 0.088 kcal/mol, the “folding stability dG unfold” value [2] is reported as 1.66 ± 0.085 kcal/mol and the “folding stability dG unfold” value [3] is reported as 1.52 ± 0.15 kcal/mol.

With “GMTIVPPSSPVTDSSGNYEEYPDSQLYKDSSTGKPIIAFPMSPEELAAGDPAALARREALAKEYGLPEIEPS [r1_438_JUSTAS]” the “folding stability dG unfold” value [1] was -0.579 ± 0.35 kcal/mol, the “folding stability dG unfold” value [2] was 0.0509 ± 0.37 kcal/mol and the “folding stability dG unfold” value [3] was 0.0139 ± 0.25 kcal/mol.

With “SAGGSAGGSVESATTTITITASLTPEEVEEIIEELKKKGLNVKKVEIEREPETGSVTITVTVNPSAGGSAGG [r6_514_JUSTAS]” the “folding stability dG unfold” value [1] was 3.2 ± 0.1 kcal/mol, the “folding stability dG unfold” value [2] was 2.92 ± 0.075 kcal/mol and the “folding stability dG unfold” value [3] was 3.14 ± 0.093 kcal/mol.

In the case of “SAGGSAGGSAGWRTHSHWVPPDNIPELAERIQDWGVKVEIERDPKDGWYRVTITIPDDFISAGGSAGGSAGG [r11_1043_TrROS]”, the “folding stability dG unfold” value [1] is reported as 0.793 ± 0.058 kcal/mol, the “folding stability dG unfold” value [2] is reported as 1.38 ± 0.15 kcal/mol and the “folding stability dG unfold” value [3] is reported as 1.21 ± 0.14 kcal/mol.

For “SMIDIEISTDPNNPNVITVTAKYPDPEKAKEYLEKKLKEEYDVISISYEYEPENPIITFTFTYASPEKPQSA [r9_1120_JUSTAS]”, the “folding stability dG unfold” value [1] was 2.37 ± 0.078 kcal/mol, the “folding stability dG unfold” value [2] was 3.11 ± 0.052 kcal/mol and the “folding stability dG unfold” value [3] was 2.79 ± 0.15 kcal/mol.

In the case of “SAGGSAGPDPKNKKIKVKVETFYLEDFGLKVEKIYIEGTGKPLLVFYFPDGSKLIINEDGTVKLIESAGGSA [r15_617_TrMRF]”, the “folding stability dG unfold” value [1] is reported as 1.79 ± 0.35 kcal/mol, the “folding stability dG unfold” value [2] is reported as 3.33 ± 0.14 kcal/mol and the “folding stability dG unfold” value [3] is reported as 2.89 ± 0.23 kcal/mol.

In the case of “SAGGYKFTIIARFDSVEEAKEWVEEIIRDIFPDNGIEVEVEVETDPENGGVYVKATIEVPPPDPDDFSAGGS [r8_17_TrROS]”, the “folding stability dG unfold” value [1] is reported as 2.98 ± 0.17 kcal/mol, the “folding stability dG unfold” value [2] is reported as 4.36 ± 0.23 kcal/mol and the “folding stability dG unfold” value [3] is reported as 4.01 ± 0.3 kcal/mol.

For “SAGGSAGGSKNGEPPPVPTITMRFKDPDKIRKLNKKAGLPIEHDPGNGYITFPYRQIDKILKASAGGSAGGS [r12_325_TrROS]”, the “folding stability dG unfold” value [1] was 3.98 ± 0.8 kcal/mol, the “folding stability dG unfold” value [2] was 5.86 ± 0.32 kcal/mol and the “folding stability dG unfold” value [3] was over 6 kcal/mol.

In the case of “SPNMQPVEMEFKIKVPGKPVDIKIEMWRMPDGQTRMDIRYPDGRSIMFNPSNGSIKIYDPKDGKPLAEISSA [r9_970_TrROS]”, the “folding stability dG unfold” value [1] is reported as 1.1 ± 0.057 kcal/mol, the “folding stability dG unfold” value [2] is reported as 1.47 ± 0.073 kcal/mol and the “folding stability dG unfold” value [3] is reported as 1.38 ± 0.16 kcal/mol.

In the case of “SAGGSAGGSELSDEEIEALRKPPKVRIRVEIVYPDGTVEEREFSSLEEALAAAKERNVTVKILSAGGSAGGS [r12_244_TrROS_Hall]”, the “folding stability dG unfold” value [1] is reported as 2.86 ± 0.12 kcal/mol, the “folding stability dG unfold” value [2] is reported as 1.76 ± 0.058 kcal/mol and the “folding stability dG unfold” value [3] is reported as 2.28 ± 0.089 kcal/mol.

In the case of “SAGNIKISYDPDDGWLTITFPVAPGQEFSFKLNIMLPENGAKIKNVEVTGPLKDGQPVTITMKVTGIKPSAG [r5_737_TrROS]”, the “folding stability dG unfold” value [1] is reported as 2.2 ± 0.13 kcal/mol, the “folding stability dG unfold” value [2] is reported as 3.77 ± 0.064 kcal/mol and the “folding stability dG unfold” value [3] is reported as 3.27 ± 0.11 kcal/mol.

With “SAGGSAKVIVEELPDGSIKIYFPETGAVIVLNPETGEAVVFVNPKKKNNEPPSLDDVLKAAKEALGSAGGSA [r15_735_TrMRF]” the “folding stability dG unfold” value [1] was 0.413 ± 0.041 kcal/mol, the “folding stability dG unfold” value [2] was 1.6 ± 0.019 kcal/mol and the “folding stability dG unfold” value [3] was 1.28 ± 0.063 kcal/mol.

Reference: the supplement of paper PMC12764529
